# Patent US20140010832A1
# What was measured:
# Assay in all cases: ELISA; cytokine coated, ECM protein 0.02 to 320 nM, KD by non-linear fit
# Fibronectin = target: Fibronectin
# Tenascin C = target: Tenascin C
# Vitronectin = target: Vitronectin
# Fibrinogen = target: Fibrinogen
# Osteopontin = target: Osteopontin
# Sequence of Osteopontin (P10451 17-314): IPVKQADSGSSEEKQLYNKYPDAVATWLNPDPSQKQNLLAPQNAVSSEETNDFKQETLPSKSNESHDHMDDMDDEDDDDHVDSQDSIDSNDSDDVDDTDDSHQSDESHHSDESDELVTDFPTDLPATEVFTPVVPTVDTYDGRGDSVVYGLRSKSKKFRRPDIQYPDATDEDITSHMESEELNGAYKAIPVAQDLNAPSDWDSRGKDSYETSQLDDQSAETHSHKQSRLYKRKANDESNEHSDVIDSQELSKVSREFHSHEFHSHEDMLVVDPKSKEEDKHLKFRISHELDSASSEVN
# Sequence of Tenascin C (P24821 23-2201): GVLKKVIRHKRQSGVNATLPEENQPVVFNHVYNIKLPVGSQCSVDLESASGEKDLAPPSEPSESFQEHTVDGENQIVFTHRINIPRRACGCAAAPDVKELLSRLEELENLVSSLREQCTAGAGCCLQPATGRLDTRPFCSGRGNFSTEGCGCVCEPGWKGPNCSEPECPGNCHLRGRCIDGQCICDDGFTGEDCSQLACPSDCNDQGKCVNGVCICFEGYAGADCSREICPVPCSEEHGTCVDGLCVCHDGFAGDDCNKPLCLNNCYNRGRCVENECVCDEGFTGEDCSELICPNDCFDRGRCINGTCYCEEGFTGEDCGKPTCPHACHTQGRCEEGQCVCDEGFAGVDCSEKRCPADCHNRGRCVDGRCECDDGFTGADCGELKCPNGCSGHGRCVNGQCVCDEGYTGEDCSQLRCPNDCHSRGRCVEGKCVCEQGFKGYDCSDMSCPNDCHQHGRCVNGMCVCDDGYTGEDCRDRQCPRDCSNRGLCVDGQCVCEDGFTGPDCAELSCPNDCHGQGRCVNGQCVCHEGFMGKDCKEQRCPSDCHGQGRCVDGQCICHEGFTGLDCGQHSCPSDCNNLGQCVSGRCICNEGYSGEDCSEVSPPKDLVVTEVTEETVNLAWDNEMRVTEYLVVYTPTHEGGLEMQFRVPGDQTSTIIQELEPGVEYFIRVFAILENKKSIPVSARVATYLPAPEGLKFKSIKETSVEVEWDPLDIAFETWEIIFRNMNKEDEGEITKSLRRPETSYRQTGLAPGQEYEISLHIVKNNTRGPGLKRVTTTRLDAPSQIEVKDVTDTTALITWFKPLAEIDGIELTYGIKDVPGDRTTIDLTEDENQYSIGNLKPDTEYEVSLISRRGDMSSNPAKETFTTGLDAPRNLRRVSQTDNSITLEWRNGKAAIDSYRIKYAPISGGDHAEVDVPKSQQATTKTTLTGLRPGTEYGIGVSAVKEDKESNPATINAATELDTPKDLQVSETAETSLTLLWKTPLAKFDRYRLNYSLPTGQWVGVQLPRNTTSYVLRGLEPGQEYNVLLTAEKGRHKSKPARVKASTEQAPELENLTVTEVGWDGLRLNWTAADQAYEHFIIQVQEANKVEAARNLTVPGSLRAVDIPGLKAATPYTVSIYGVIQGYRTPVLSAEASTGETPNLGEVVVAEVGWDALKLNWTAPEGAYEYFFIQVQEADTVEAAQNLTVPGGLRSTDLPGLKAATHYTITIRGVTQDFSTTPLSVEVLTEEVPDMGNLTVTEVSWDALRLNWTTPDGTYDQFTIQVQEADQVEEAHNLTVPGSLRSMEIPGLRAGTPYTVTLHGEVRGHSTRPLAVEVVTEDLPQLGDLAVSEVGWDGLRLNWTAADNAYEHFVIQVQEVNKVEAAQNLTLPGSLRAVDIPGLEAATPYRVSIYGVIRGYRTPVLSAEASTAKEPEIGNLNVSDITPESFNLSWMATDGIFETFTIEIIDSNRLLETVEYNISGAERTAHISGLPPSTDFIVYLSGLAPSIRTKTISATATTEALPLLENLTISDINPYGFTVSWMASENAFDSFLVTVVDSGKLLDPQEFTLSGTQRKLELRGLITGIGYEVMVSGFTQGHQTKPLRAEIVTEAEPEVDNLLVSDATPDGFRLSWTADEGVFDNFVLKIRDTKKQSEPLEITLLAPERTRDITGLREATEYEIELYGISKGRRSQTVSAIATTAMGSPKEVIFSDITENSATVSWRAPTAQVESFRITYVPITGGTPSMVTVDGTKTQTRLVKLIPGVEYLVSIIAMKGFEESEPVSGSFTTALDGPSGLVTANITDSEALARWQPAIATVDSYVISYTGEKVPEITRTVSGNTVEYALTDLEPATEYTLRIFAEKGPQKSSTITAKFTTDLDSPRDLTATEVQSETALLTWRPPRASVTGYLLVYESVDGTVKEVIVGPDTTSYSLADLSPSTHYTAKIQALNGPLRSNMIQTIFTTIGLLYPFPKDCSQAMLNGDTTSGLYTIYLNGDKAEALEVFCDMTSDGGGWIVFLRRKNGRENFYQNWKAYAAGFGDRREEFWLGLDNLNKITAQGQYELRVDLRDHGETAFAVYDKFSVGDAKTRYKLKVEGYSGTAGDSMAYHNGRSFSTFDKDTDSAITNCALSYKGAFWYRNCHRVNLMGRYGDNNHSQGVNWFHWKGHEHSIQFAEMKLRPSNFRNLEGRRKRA
# Sequence of VEGF-A165 (P15692 other isoform, or with tags, fused parts or gaps limits assumed): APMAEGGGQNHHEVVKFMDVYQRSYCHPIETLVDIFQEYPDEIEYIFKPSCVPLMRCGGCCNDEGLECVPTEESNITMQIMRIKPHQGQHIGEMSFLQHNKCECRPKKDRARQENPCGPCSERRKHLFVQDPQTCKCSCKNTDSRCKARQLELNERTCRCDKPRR
# Sequence of Vitronectin (P04004 20-478): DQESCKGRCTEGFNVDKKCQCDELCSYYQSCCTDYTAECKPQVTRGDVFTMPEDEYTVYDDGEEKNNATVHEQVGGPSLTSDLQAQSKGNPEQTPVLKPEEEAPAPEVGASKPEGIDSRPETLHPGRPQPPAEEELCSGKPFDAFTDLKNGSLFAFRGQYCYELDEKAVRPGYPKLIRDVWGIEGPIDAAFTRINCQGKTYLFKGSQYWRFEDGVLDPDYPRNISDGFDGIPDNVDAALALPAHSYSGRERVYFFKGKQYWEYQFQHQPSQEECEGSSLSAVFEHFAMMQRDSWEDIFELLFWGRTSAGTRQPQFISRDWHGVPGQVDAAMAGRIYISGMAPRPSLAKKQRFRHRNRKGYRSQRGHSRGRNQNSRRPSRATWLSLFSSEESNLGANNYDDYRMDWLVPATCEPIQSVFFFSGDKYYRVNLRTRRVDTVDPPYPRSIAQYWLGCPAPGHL
# Sequence of human VEGF-A121-PlGF2123-144 (P15692 other isoform, or with tags, fused parts or gaps): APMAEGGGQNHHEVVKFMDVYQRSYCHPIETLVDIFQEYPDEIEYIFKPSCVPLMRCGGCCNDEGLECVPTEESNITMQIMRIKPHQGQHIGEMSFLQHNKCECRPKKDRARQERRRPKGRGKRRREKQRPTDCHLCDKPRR
# Sequence of human PDGF-BB (P01127 82-190 limits assumed): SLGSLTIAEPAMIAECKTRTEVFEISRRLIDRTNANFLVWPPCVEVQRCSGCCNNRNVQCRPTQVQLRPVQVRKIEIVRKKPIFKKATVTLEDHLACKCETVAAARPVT
Substance,Kd (Fibronectin),Kd (Tenascin C),Kd (Vitronectin),Kd (Fibrinogen),Kd (Osteopontin)
human PDGF-BB (from UniProt P01127 82-190) (ligand),11.6 nM,19 nM,10.5 nM,250 nM,20.3 nM
VEGF-A165 (from UniProt P15692 27-191) (ligand),97.2 nM,115 nM,70.9 nM,302 nM,71 nM
PlGF2 (ligand),7.2 nM,10.1 nM,2 nM,4.5 nM,13.1 nM
human VEGF-A121-PlGF2123-144 (from UniProt P15692 207-395) (ligand),11.2 nM,18 nM,2.8 nM,5.8 nM,26.4 nM
